Measured values published in PMC7946914, “easyCLIP analysis of RNA-protein interactions incorporating absolute quantification”.
Positions count from the first letter of the chain named.

How the values were obtained:
Experiment in all cases: fluorescence polarization; FP with 3' 6-FAM RNA; PCBP1 RNA diluted to 50 nM in PCBP binding buffer; buffer composition, pH and temperature not in the material
[1] = biological target: T1, A1CF E34K (human?, UniProt Q9NQ94 1-594, E34K); details: protein: recombinant; label: 3' 6-FAM; single-stranded
T1 sequence: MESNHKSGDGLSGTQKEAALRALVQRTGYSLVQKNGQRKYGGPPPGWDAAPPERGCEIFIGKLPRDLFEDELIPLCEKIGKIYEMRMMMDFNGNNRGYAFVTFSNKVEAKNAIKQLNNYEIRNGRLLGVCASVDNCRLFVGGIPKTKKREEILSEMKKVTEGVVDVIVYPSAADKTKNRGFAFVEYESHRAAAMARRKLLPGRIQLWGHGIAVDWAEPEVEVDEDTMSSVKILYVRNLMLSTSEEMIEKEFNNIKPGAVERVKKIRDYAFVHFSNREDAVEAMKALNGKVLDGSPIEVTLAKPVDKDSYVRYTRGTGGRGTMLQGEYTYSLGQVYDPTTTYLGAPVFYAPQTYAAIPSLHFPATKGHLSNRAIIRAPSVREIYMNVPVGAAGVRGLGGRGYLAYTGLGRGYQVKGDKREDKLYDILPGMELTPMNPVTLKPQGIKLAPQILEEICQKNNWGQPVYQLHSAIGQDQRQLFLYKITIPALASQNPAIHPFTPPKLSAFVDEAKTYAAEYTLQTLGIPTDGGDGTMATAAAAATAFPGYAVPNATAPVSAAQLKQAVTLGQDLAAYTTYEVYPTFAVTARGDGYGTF

[2] = biological target: T2, A1CF WT (human?, UniProt Q9NQ94 1-594); details: protein: recombinant; label: 3' 6-FAM; single-stranded
T2 sequence: T1 sequence with K34E

[3] = biological target: T3, KHDRBS2 R168C (UniProt Q5VWX1 1-349, R168C); details: protein: recombinant; chain copies: 2; label: 3' 6-FAM; single-stranded
T3 sequence: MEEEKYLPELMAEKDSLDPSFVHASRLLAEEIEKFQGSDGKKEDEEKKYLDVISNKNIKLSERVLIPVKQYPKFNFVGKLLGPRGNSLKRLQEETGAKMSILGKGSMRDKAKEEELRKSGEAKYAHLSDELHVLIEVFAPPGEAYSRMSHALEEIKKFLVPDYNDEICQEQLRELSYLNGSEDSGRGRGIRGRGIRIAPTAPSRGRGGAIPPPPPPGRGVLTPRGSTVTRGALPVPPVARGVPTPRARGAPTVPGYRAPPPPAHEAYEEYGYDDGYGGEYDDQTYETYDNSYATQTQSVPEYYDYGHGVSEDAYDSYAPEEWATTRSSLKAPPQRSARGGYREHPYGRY

[4] = biological target: T4, KHDRBS2 WT (UniProt Q5VWX1 1-349); details: protein: recombinant; chain copies: 2; label: 3' 6-FAM; single-stranded
T4 sequence: T3 sequence with C168R

In the case of AUUAAAUUAAAUUU (ssRNA) [AU-rich RNA (A1CF and KHDRBS2)], the binding signal [1] is reported as about 2 fold affinity vs WT, the binding signal [2] is reported as 1 fold (reference) and the binding signal [3] is reported as about 2 fold affinity vs WT. For the same binder, the binding signal [4] was 1 fold (reference).
